Data published in publication PMC8884700, “Selection and Modelling of a New Single-Domain Intrabody Against TDP-43” (Frontiers in Molecular Biosciences, 2021).

T1: LexA fragment of RRMs (160-208) (Homo sapiens (species of cDNA not …, UniProt Q13148))
T1 construct: TDP-43, residues 160-208, containing the linker between RRM1 and RRM2; also called RRMs bait; source: yeast two-hybrid fusion (L40 yeast)
T1 chain: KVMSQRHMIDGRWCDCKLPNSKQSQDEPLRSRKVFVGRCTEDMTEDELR


How the values were obtained:
[1] = molecular target: T1, LexA fragment of RRMs (160-208); experiment: two-hybrid; IACT / in vivo epitope mapping in L40 yeast; LexA-fused bait, VP16-fused VHH prey; growth on SD-WHL (HIS3); liquid beta-gal (LacZ) for the full-length bait; details: partners not purified
[2] = molecular target: T2, LexA-N-term + RRM1-2 (residues 1-258) (Homo sapiens (species of cDNA not …, UniProt Q13148)); experiment: as above; details: partners not purified
T2 construct: TDP-43, residues 1-258 (N-terminus plus RRM1 and RRM2); also called LexA- N-Term + RRM1-2 (1-258); N-terminal half of TDP-43; source: yeast two-hybrid fusion (L40 yeast)
T2 sequence (Q13148 1-258): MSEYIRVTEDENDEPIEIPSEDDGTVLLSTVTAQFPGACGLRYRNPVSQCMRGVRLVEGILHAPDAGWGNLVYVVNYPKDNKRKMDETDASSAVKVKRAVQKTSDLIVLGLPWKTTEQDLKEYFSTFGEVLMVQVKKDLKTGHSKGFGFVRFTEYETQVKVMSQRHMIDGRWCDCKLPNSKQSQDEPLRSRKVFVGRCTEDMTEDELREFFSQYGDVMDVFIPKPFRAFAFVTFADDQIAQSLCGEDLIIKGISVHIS

LexA-RRM2 (192-258) = molecular target: T3, LexA-RRM2 (192-258) (Homo sapiens (species of cDNA not …, UniProt Q13148)); experiment: as above; details: partners not purified
T3 construct: TDP-43, RRM2, residues 192-258; also called RRM2 bait; source: yeast two-hybrid fusion (L40 yeast)
T3 sequence (Q13148 192-258): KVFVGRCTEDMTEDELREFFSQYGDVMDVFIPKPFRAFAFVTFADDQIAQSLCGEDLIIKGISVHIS

[3] = molecular target: T4, LexA-TDP-43 full length (residues 1-414) (Homo sapiens (species of cDNA not …, UniProt Q13148)); experiment: as above; details: partners not purified
T4 construct: also called TDP-43 bait; source: yeast two-hybrid fusion (L40 yeast, pMicBD1 bait plasmid)
T4 sequence (Q13148 whole entry, the tested form may be a part): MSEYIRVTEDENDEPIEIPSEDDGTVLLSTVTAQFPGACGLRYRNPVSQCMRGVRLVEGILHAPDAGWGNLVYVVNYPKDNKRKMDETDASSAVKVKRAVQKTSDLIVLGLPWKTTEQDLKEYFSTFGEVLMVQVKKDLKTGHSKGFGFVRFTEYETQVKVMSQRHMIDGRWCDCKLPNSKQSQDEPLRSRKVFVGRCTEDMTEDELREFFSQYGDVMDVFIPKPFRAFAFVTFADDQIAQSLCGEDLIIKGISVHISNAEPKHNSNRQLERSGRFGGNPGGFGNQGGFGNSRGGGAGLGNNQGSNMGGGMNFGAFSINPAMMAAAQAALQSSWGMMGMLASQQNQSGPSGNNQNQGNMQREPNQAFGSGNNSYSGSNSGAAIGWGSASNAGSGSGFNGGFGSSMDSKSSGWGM

purified RRM2 of TDP-43 = molecular target: T5, purified RRM2 of TDP-43 (Homo sapiens, UniProt Q13148); experiment: ELISA; indirect ELISA; TDP-43 fragments coated at 1 uM in carbonate buffer pH 9.6; VHH5 added at 1, 3, 5 and 10 uM, 2 h, room temperature; detected with anti-camelid VHH [HRP]; details: both partners purified
T5 construct: TDP-43, RRM2 domain; source: purified
T5 sequence (Q13148 whole entry, looked up, the tested form may be a part): as the sequence (Q13148 whole entry, the tested form may be a part) above

[4] = molecular target: T6, purified RRM1-2 of TDP-43 (tandem RRM domains) (Homo sapiens, UniProt Q13148); experiment: ELISA; sandwich ELISA; VHH5 coated at 1, 3, 5 and 10 uM in carbonate buffer pH 9.6; TDP-43 fragments (10 ug/ml) added in PBS/BSA 1% pH 7.4, 2 h, room temperature; detected with rabbit anti-TDP-43 polyclonal and HRP secondary antibody; details: both partners purified
T6 construct: TDP-43, tandem RRM1 and RRM2 domains; Production and limits of the purified construct are not described; The docking used PDB 4bs2 (human TDP-43 tandem RRM1-2) as the putative antigen; source: purified

purified RRM1 of TDP-43 = molecular target: T7, purified RRM1 of TDP-43 (Homo sapiens, UniProt Q13148); experiment: as above; details: both partners purified
T7 construct: TDP-43, RRM1 domain; source: purified

Row | binding result [1] | binding result [2] | binding result (LexA-RRM2 (192-258)) | binding result [3] | binding result (purified RRM2 of TDP-43) | binding result [4] | binding result (purified RRM1 of TDP-43) | Binder
1 | binds | binds | binds | binds |  |  |  | anti-TDP-43 VHH5 intrabody (VP16 activation domain fusion, prey in pLinker220) (VHH, selected from a naive llama VHH SPLINT library; The modelling sections number residues 1-135, with H3 at 94-114; source: yeast two-hybrid fusion (L40 yeast, pLinker220 prey plasmid)) VHH: KVQLVESGGGSVQIGGSLRLSCRISEGSGNKYVMAWFRQAPGQEREFVGVISWSGTRTHYADSVRGRFTISRMDNTAYLQMDSLTPDDSGVYYCAASVSVPPFLELTAAHFGSWGQGTQVRVGS
2 |  |  |  |  | binds | binds | binds | VHH5-I15A_M75K (VHH, also called purified VHH5; double mutant; not shown: SUMO, N-terminal, cleaved) VHH: KVQLVESGGGSVQAGGSLRLSCRISEGSGNKYVMAWFRQAPGQEREFVGVISWSGTRTHYADSVRGRFTISRKDNTAYLQMDSLTPDDSGVYYCAASVSVPPFLELTAAHFGSWGQGTQVRVGS
